Patent US20220073643A1 (NANJING GENSCRIPT BIOTECH, published 2022)

Target: T1, human Claudin18.2 (human)
T1 construct: also called CLDN18.2
Assay: cell ELISA, Claudin18.2-expressing HEK293T cells
Summary of the method: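 Claudin18.2-expressing HEK293T stable cells (1.5×10⁶ cells/ml in 5% skim milk/PBS blocking buffer) were incubated 1 h at room temperature in plates pre-blocked overnight at 4° C. EC₅₀ was derived by four-parameter curve fit.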

Binder	EC50 [nM]
271B1B6 (antibody, V domains shown, mouse hybridoma mAb) VH: QAYLQQSGAELVRSGASVKMSCKASGYTFTNYNIHWVKQTPGQGLEWIGYIYPGNGGNYYNQKFKGKATLTADTSSITAYMQISSLTSEDSAVYFCARDYYGNSFAYWGQGTLVTVSA VL: DIVMTQSPSSLTVTAGEKVTMNCKSSQSLLNSGNQKNYLTWYQQKPGQPPKLLIYWASTRESGVPDRFTGSGSGTDFTLTISSVQAEDLAIYYCQNDYYYPLTFGAGTKLELK	~0.429
392A11C8 (antibody, V domains shown, mouse hybridoma mAb) VH: DVQLVESGGGLVQPGGSRKLSCAASGFTFSGFGMHWIRQTPEKGLEWVAYISSGSRPIYYADTVKGRFTISRDNPKNTLFLQMTSLRSEDTAMYFCARFYYGNSFDHWGQGTLVTVSA VL: DIVMTQSPSFLTVTAGEKVTMSCRSSQSLLNSGNQKNYLTWYQQKPGQPPKLLIYWASTRESGVPDRFTGSGSGTDFTLTISSVQAEDLALYYCQNAYSFPLTFGAGTKLELK	1.21
406F11G8 (antibody, V domains shown, mouse hybridoma mAb) VH: DVQLVESGGGLVQPGGSRKLSCAASGFTFSSFGMHWVRQAPEKGLEWVAYISSGSSPIYYADTVKGRFTISRDNSKNTLFLQMTSLRSEDTAMYFCARIYYGNSFAYWGQGTLVTVSA VL: DIVMTQSPSSLTVTAGEKVAMSCKSSQTLLNSGNQKNYLTWYQQKPGQPPKLLIYWASTRESGVPDRFTGSGSGTDFTLTISSVQAEDLAVYYCQNAYYYPLTFGSGTKLELK	1.83
286C7F11 (antibody, V domains shown, mouse hybridoma mAb) VH: QVQLKESGPGLVAPSQSLSITCTVSGFSLTDYGVSWIRQPPGKGLEWLGVIWNRGNTYYNSALKSRLSISKDNSKSQVFLRMNSLQTDDTAMYYCAKHDFLRFLDYWGQGTTLTVSS VL: DVVMTQSPSSLTVTAGEKVTMSCKSSQSLLNSGNQKNYLTWYQQKPGQPPKILIYWASTRESGVPDRFTGSGSGTDFSLTITSVQAEDLAVYYCLNDYYYPLTFGAGTKLELK	~0.0831
391H11H3 (antibody, V domains shown, mouse hybridoma mAb) VH: DVQLVESGGGLVQPGGSRKLSCAASGFTFSGFGMHWIRQTPEKGLEWVAYISSGSRPIYYADTVQGRFTISRDNPKNTLFLQMTSLRSEDTAMYFCARFYYGNSFDHWGQGTLVTVSS VL: DIVMTQSPSFLTVTAGEKVTMSCKSSQSLLNSGNQKNYLTWYQQKPGQPPKLLIYWASTRESGVPDRFTGSGSGTDFTLTISSVQAEDLALYYCQNAYSFPLTFGAGTKLELK	2.97
409D1A7 (antibody, V domains shown, mouse hybridoma mAb) VH: DVQLVESGGGLVQPGGSRKLSCAASGFTFSGFGMHWIRQTPEKGLEWVAYISSGSRPIYYADTVKGRFTISRDNPKNTLFLHMTSLRSEDTAMYFCARFYYGNSFDHWGQGTLVTVSA VL: DIVMTQSPSFLTVTAGEKVTMNCKSSQSLLNSGNQRNYLTWYQQKPGQPPKLLIYWASTRESGVPDRFTGSGSGTDFTLTISSVQAEDLALYYCQNAYSFPLTFGAGTKLELN	2.05
411B4G4 (antibody, V domains shown, mouse hybridoma mAb) VH: DVQLVESGGGLVQPGGSRKLSCAASGFTFSGFGLHWIRQTPEKGLEWVAYISSGSRPIYYADTVKGRFTISRDNPKNTLFLQMTSLRSEDTAMYFCARFYYGNSFDHWGQGTLVTVSA VL: DIVMTQSPSFLTVTAGEKVTMSCRSSQSLLNSGNQRNYLTWYQQKPGQPPKLLIYWASTRESGVPDRFTGSGSGTDFTLTISSVQAEDLALYYCQNAYSFPLTFGAGTKLELK	2.85
411A6E3 (antibody, V domains shown, mouse hybridoma mAb) VH: DVQLVESGGGLVQPGGSRKLSCAASGFTFSDFGMHWIRQTPEKGLEWVAYISSGSRPIYYADTVKGRFTISRDNPKNTLFLQMTSLRSEDTAMYFCVRFYFGNSFDHWGQGTLVTVSA VL: DIVMTQSPSFLTVTAGEKVTMTCRSSQNLLNSGNLKNYLTWYQQKPGQPPKLLISWASTRESGVPDRFTGSGSGTDFTLTISSVQPEDLALYYCQNAYSFPLTFGAGTKLELK	~2.6
394C2G5 (antibody, V domains shown, mouse hybridoma mAb) VH: DVQLVESGGGLVQPGGSRKLSCAASGFTFSGFGMHWIRQTPEKGLEWVAYVSSGSRPIYYADTVKGRFTISRDNPKNTLFLQMTSLRSEDTAMYFCARFYYGNSFDHWGQGTLVTVSA VL: DIVMTQSPSFLTVTAGEKVTMSCKSSQSLLNSGNQKNYLTWYQQKPGQPPKLLIYWASTRESGVPDRFTGSGSGTDFTLTINNVQAEDLALYYCQNAYSFPLTFGAGTKLELT	2.81
407E11H8 (antibody, V domains shown, mouse hybridoma mAb) VH: DVQLVESGGGLVQPGGSRKLSCAASGFTFSDFGMHWIRQTPEKGLEWVAYISSGSRPIYYADTVKGRFTISRDNPKNTLFLQMTSLRSEDTAMYFCVRFYFGNSFDHWGQGTLVTVSA VL: DIVMTQSPSFLTVTAGEKVTMTCRSSQNLLNSGNLKNYLTWYQQKPGQPPKLLISWASTRESGVPDRFTGSGSGTDFTLTISSVQPEDLALYYCQNAYSFPLTFGAGTKLELK	1.24

More lines, in order of falling EC50, values ahead:

EC50 [nM]	Binder
~14	265E6G2 (antibody, V domains shown, mouse hybridoma mAb) VH: QAYLQQSGAELVRSGASVKMSCKASGYTFTSYNMHWVKQTPGQGLEWIGYIYPGNGGTNYNQKFKGKATLTADTSSSTAYMQISSLTSEDSAVYFCARDYYGNSFAYWGQGTLVTVSA VL: DLVMTQSPSSLTVTAGEKVTMSCKSSQSLLNSGNQKNYLTWYQQKPGQPPKLLIYWASTRESGVPDRFTGSGSGTDFTLTISNIQAEDLAVYYCQNDYSYPLPFGAGTKLELR
~9.62	279E8B8 (antibody, V domains shown, mouse hybridoma mAb) VH: QAYLQQSGAELVRSGASVKISCKASGYTFASHNMHWVKQTPGQGLEWIGYIYPGNGGTKYNQKFTGKATLSADTSSSTAYLQISSLTSEDSAVYFCARDYFGNSFVYWGQGTLVTVSA VL: DIVMTQSPSSLTEKAGEKVSMRCKSSQSLLNSGNQKNYLTWYQQKPGQPPKLLIYWASTRESGVPDRFTGSGSGTDFTLTISSVQADDLAVYYCQNDYMYPFTFGAGTKLELK
4.33	410D9G2 (antibody, V domains shown, mouse hybridoma mAb) VH: DVQLVESGGGLVQPGGSRKLSCAASGFTFSGFGMHWIRQTPEKGLEWVAYISSGSRPIYYADTVQGRFTISRDNPKNTLFLQMTSLRSEDTAMYFCARFYYGNSFDHWGQGTLVTVSS VL: DIVMTQSPSFLTVTAGEKVTMSCKSSQSLLNSGNQKNYLTWYQQKPGQPPKLLIYWASTRESGVPDRFTGSGSGTDFTLTISSVQAEDLALYYCQNAYSFPLTFGAGTKLELK
4.33	406E1H7 (antibody, V domains shown, mouse hybridoma mAb) VH: DVQLVESGGGLVQPGGSRKLSCAASGFTFSGFGMHWIRQTPEKGLEWVAYISSGSRPIYYADTVQGRFTISRDNPKNTLFLQMTSLRSEDTAMYFCARFYYGNSFDHWGQGTLVTVSS VL: DIVMTQSPSFLTVTAGEKVTMSCKSSQSLLNSGNQKNYLTWYQQKPGQPPKLLIYWASTRESGVPDRFTGSGSGTDFTLTISSVQAEDLALYYCQNAYSFPLTFGAGTKLELK
3.58	395B3C11 (antibody, V domains shown, mouse hybridoma mAb) VH: DVQLVESGGGLVQPGGSRKLSCAASGFTFSGFGMHWIRQTPEKGLEWVAYISSGSRPIYYADTVQGRFTISRDNPKNTLFLQMTSLRSEDTAMYFCARFYYGNSFDHWGQGTLVTVSS VL: DIVMTQSPSFLTVTAGEKVTMSCKSSQSLLNSGNQKNYLTWYQQKPGQPPKLLIYWASTRESGVPDRFTGSGSGTDFTLTISSVQAEDLALYYCQNAYSFPLTFGAGTKLELK
3.47	411G12G1 (antibody, V domains shown, mouse hybridoma mAb) VH: DVQLVESGGGLVQPGGSRKLSCAASGFTFSGFGMHWIRQAPEKGLEWVAYISSGSRPIYYADTVKGRFTISRDNPKNTLFLQMTSLRSEDTAMYFCARFYYGNSFDHWGQGTLVTVSA VL: DIVMTQSPSFLTVTAGEKVTMSCKSSQSLLNSGNQKNYLTWYQQKPGQPPKLLIYWASTRESGVPDRFTGSGSGTDFTLTISSVQAEDLAVYYCQNDYSFPLTFGAGTKLELK
~2.66	391F1G2 (antibody, V domains shown, mouse hybridoma mAb) VH: DVQLVESGGGLVQPGGSRKLSCAASGFTFSSFGMHWVRQAPEKGLEWVAYISSGSSPIYYADTVKGRFTISRDNPKNTLFLQMTSLRSEDTAMYFCARIYYGNSFAYWGQGTLVTVSA VL: DIVMTQSPSSLTVTAGEKVAMSCKSSQTLLNSGNQKNYLTWYQQKPGQPPKLLLYWASTRESGVPDRFTGSGSGTDFTLTISSVQAEDLAVYYCQNAYYYPLTFGSGTKLELK
2.45	411G3E10 (antibody, V domains shown, mouse hybridoma mAb) VH: DVQLVESGGGLVQPGGSRKLSCAASGFTFSGFGMHWIRQTPEKGLEWVAYISSGSRPIYYADTVKGRFTISRDNPKNTLFLQMTSLRSEDTAMYFCARFYYGNSFDHWGQGTLVTVSA VL: DIVMTQSPSFLTVTAGEKVTMNCRSSQSLLNSGNQKNYLTWYQQKPGQPPKLLIYWASTRESGVPDRFTGSGSGTDFTLTISSVQAEDLALYYCQNAYSFPLTFGAGTKLELK
2.38	407D8G1 (antibody, V domains shown, mouse hybridoma mAb) VH: DVQLVESGGGLVQPGGSRKLSCAASGFTFSGFGMHWIRQTPEKGLEWVAYISSGSRPIYYADTVQGRFTISRDNPKNTLFLQMTSLRSEDTAMYFCARFYYGNSFDHWGQGTLVTVSS VL: DIVMTQSPSFLTVTAGEKVTMSCKSSQSLLNSGNQKNYLTWYQQKPGQPPKLLIYWASTRESGVPDRFTGSGSGTDFTLTISSVQAEDLALYYCQNAYSFPLTFGAGTKLELK
2.19	409G10G6 (antibody, V domains shown, mouse hybridoma mAb) VH: DVQLVESGGGLVQPGGSRKLSCAASGFTFSGFGMHWIRQTPEKGLEWVAYISSDSRPIYYADTVKGRFTISRDNPKNTLFLQMTSLRSEDTAMYFCGRFYYGNSFDHWGQGTLVTVSA VL: DIVMTQSPSFLTVTAGEKVTLSCRSSQSLLNSGNQRNYLTWYQQKPGQPPKLLIYWASTRESGVPDRFTGSGSGTDFTLTISSVQAEDRALYYCQNAYSFPLTFGTGTKLELR
2.14	407A8G10 (antibody, V domains shown, mouse hybridoma mAb) VH: DVQLVESGGGLVQPGGSRKLSCAASGFTFSGFGMHWIRQTPEKGLEWVAYISSGSRPIYYADTVKGRFTISRDNPKNTLFLQMTSLRSEDTAMYFCARFYYGNSFDHWGQGTLVTVSA VL: DIVMTQSPSFLTVTAGEKVTMSCRSSQSLLNSGNQRNYLTWYQQKPGQPPKLLIYWASTRESGVPDRFTGSGSGTDFALTISSVQAEDLALYYCQNAYSFPLTFGAGTKLELK
